T1: recombinant human LEPR extracellular domain expressed with a C-terminal mouse IgG2a Fc tag (human)
T1 construct: Dimeric construct; also called hLEPR.mFc; hLEPR-mFc
T1 chain: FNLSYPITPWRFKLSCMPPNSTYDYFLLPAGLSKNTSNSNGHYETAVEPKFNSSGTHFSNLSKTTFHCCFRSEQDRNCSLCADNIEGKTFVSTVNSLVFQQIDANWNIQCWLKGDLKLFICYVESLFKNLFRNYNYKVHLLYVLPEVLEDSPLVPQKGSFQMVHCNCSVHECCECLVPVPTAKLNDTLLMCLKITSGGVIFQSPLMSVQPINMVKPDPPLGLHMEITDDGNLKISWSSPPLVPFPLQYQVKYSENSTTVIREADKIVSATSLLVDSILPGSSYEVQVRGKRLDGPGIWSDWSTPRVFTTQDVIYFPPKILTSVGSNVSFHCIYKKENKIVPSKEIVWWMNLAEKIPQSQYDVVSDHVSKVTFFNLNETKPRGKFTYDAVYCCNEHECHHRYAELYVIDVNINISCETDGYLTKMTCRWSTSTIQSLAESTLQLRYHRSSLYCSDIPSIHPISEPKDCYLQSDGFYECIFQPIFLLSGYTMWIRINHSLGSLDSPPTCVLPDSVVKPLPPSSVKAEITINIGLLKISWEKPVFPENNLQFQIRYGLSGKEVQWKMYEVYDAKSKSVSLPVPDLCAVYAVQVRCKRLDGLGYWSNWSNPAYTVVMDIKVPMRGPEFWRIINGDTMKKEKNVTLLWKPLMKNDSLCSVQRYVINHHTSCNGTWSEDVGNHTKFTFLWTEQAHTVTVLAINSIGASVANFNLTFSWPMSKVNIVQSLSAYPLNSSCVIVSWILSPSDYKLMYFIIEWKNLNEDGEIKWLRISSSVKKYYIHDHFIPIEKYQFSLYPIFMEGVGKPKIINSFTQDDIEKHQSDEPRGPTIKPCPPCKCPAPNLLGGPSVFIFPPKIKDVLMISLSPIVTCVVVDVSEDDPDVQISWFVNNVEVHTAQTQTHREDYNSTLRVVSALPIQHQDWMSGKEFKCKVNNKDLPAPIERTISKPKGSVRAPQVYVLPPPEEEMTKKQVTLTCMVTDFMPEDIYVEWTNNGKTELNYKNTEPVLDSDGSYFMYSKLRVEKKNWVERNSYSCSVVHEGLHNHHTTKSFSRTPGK


What was measured:
Assay in all cases: SPR, mAb captured, 25 C
[1] = target: T2, recombinant human LEPR extracellular domain expressed with a C-terminal myc-myc-hexahistidine tag (human, UniProt P48357 22-839)
T2 construct: Monomeric construct; also called hLEPR.MMH; hLEPR-MMH
Procedure: (§1) Equilibrium dissociation constants (KD values) for antigen binding to purified anti-LEPR monoclonal antibodies of the invention were determined using a real-time surface plasmon resonance biosensor using a Biacore 4000 instrument. All binding studies were performed in running buffer containing 10 mM HEPES, 150 mM NaCl, 3 mM EDTA, and 0.05% v/v Surfactant Tween-20, pH 7.4 (HBS-ET running buffer) at 25° C. and 37° C. The Biacore sensor surface was first derivatized by amine coupling with a monoclonal mouse anti-human Fc antibody (GE, # BR-1008-39) to the capture anti-LEPR monoclonal antibodies. The LEPR reagents tested for binding to the anti-LEPR monoclonal antibodies included recombinant human LEPR extracellular domain expressed with a C-terminal myc-myc-hexahistidine tag (hLEPR.MMH; SEQ ID NO:90), recombinant cynomolgus monkey LEPR extracellular domain expressed with a C-terminal myc-myc-hexahistidine tag (mfLEPR.MMH; SEQ ID NO:93), recombinant mouse LEPR extracellular domain expressed with a C-terminal myc-myc-hexahistidine tag (mLEPR.MMH; SEQ ID NO:94), recombinant rat LEPR extracellular domain expressed with a C-terminal myc-myc-hexahistidine tag (rLEPR.MMH; SEQ ID NO:95), and recombinant human LEPR extracellular domain expressed with a C-terminal mouse IgG2a Fc tag (hLEPR.mFc; SEQ ID NO:91). LEPR constructs that include MMH tags are monomeric LEPR constructs, and LEPR constructs including an mFc tag are dimeric LEPR constructs. […] The dissociation of monoclonal antibody bound LEPR reagent was monitored for 10 minutes in HBS-ET running buffer. Kinetic association (10 and dissociation (10 rate constants were determined by fitting the real-time binding sensorgrams to a 1:1 binding model with mass transport limitation using Scrubber 2.0c curve-fitting software. Binding dissociation equilibrium constants (KD) and dissociative half-lives (t½) were calculated from the kinetic rate constants as: […]

[2] = target: T3, recombinant cynomolgus monkey LEPR extracellular domain expressed with a C-terminal myc-myc-hexahistidine tag (cynomolgus monkey, UniProt Q9MYL0 22-837 (rhesus entry))
T3 construct: Monomeric construct; also called mfLEPR.MMH; mfLEPR-MMH
Procedure: as §1

[3] = target: T1, recombinant human LEPR extracellular …
Procedure: as §1

[4] = target: T4, recombinant rat LEPR extracellular domain expressed with a C-terminal myc-myc-hexahistidine tag (rat, UniProt Q62959 22-839)
T4 construct: Monomeric construct; also called rLEPR.MMH; rLEPR-MMH
Procedure: as §1

T4 sequence (Q62959 other isoform, or with tags, fused parts or gaps): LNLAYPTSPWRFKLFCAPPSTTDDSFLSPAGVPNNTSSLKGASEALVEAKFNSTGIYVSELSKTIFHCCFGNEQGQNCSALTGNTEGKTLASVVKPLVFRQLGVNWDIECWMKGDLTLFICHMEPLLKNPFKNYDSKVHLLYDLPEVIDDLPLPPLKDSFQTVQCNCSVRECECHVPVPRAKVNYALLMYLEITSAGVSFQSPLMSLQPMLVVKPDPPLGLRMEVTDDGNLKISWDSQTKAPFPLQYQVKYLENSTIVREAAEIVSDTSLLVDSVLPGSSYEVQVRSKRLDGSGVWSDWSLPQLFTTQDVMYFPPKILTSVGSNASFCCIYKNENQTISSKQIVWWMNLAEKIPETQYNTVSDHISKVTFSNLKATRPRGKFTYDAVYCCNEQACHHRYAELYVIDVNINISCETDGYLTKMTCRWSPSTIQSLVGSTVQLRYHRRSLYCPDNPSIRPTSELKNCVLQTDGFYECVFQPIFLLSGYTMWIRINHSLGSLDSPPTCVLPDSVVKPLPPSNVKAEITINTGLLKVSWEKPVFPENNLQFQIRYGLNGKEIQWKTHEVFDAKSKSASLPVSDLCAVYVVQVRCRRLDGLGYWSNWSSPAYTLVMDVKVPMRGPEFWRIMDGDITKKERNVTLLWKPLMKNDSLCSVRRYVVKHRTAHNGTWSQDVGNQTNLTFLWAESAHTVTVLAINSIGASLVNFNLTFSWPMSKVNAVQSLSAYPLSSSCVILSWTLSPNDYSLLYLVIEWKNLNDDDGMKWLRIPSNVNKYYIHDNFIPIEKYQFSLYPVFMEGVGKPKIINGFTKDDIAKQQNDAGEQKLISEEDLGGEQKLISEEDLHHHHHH

Row | Binder | 100 nM hLEPR-MMH Bound (RU) [1] [RU] | Kd [1] [nM] | koff [1] [s⁻¹] | kon [1] [M⁻¹ s⁻¹] | t½ [1] [min] | 100 nM mfLEPR-MMH Bound (RU) [2] [RU] | Kd [2] [nM] | koff [2] [s⁻¹] | kon [2] [M⁻¹ s⁻¹] | t½ [2] [min] | 100 nM hLEPR-mFc Bound (RU) [3] [RU] | Kd [3] [nM] | koff [3] [s⁻¹] | kon [3] [M⁻¹ s⁻¹] | t½ [3] [min] | 100 nM rLEPR-MMH Bound (RU) [4] [RU] | Kd [4] [nM] | koff [4] [s⁻¹] | kon [4] [M⁻¹ s⁻¹] | t½ [4] [min]
1 | H4H17322P2 (antibody, human IgG4, V domains shown, H4H prefix: human IgG4 Fc) VH: QLQLQESGPGLVKPSETLSLTCTVSGASISSSRFYGGWIRQPPGKGLEWIGDIYYSGNTYYNPSLQSRVTISVDTSKNQFSLKLSSVTAADTAVYYCARHLMITFGGLIVEGFDIWGQGTMVTVSS VL: not shown | 66 | 5.11 | 0.000224 | 43800 | 52 | 102 | 4.16 | 0.000292 | 70200 | 40 | 74 | 1.77 | 0.000114 | 64500 | 102 |  |  |  |  | 
2 | H4H18439P2 (antibody, human IgG4, V domains shown, H4H prefix: human IgG4 Fc) VH: QLQLQESGPGLVKPSETLSLTCIVSGGDITSSSYYWNWIRQPPGKGLEWIGNIYYSGSTNYNPSLKSRVTISIDTSKSQFSLKLRSVTAADTAVYYCARLLRYFDWSKGYLDYWGQGTLVTVSS VL: not shown | 21 | 106 | 0.00113 | 10700 | 10 | 22 | 96.3 | 0.00152 | 15700 | 8 | 53 | 3.69 | 0.00018 | 48700 | 64 | -1 |  |  |  | 
3 | H4H18466P2 (antibody, human IgG4, V domains shown, H4H prefix: human IgG4 Fc) VH: EVQLVESGGGLVQPGGSLRLSCTASGFTFSSYGLHWVRQAPGKGLEYVSSINHNGGSKYYADSVKGRFTISRDNSKNTLFLQMGSLKTEDMAVYYCARDLFLEWLFHGFDIWGQGTMVTVSS VL: not shown | 24 | 194 | 0.00511 | 26400 | 2.3 | 30 | 148 | 0.00669 | 45000 | 1.7 | 37 | 11.9 | 0.000472 | 39700 | 24 | 5 | 943 | 0.0198 | 21000 | 0.6
4 | H4H18457P2 (antibody, human IgG4, V domains shown, H4H prefix: human IgG4 Fc) VH: EVQLVESGGSVVRPGESLRLSCAASGFTFDDYGMSWVRQAPGKGLEWVSGISWNGGITVYADSVKGRFTVSRDNAKNSLYLQMNSLRAEDTALYHCARARYGGADYWGQGTLVTVSS VL: not shown | 119 | 9.89 | 0.00252 | 255000 | 5 | 133 | 12.2 | 0.00331 | 273000 | 3.5 | 149 | 0.863 | 0.000423 | 491000 | 27 | 18 | 730 | 0.0206 | 28300 | 0.6

Reference: patent US20200123264A1 (Regeneron, published 2020)
